Test results taken from US20260232827A1 (Zymeworks, published 2026).

T1: human NaPi2a (human, UniProt Q06495 1-639)
T1 construct: whole, on cells; also called Hu NaPi2a; SLC34A1
T1 sequence (looked up): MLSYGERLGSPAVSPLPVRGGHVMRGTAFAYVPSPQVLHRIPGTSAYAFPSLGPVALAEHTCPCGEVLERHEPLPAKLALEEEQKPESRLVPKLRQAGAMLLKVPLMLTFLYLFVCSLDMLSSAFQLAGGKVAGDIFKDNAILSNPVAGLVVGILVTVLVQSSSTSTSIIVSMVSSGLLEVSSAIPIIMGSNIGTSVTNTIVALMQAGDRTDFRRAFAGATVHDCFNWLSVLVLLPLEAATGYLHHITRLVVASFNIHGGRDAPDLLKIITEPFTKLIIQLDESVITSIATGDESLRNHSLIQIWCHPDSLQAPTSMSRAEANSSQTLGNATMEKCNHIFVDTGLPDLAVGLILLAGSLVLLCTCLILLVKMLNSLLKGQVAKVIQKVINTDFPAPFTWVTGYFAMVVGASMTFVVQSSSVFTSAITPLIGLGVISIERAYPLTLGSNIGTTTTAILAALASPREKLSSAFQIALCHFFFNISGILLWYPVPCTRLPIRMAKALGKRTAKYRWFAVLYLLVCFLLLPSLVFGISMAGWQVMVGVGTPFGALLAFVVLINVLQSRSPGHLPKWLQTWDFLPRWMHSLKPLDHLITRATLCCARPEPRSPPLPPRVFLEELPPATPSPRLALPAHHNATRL

T2: Construct 7 (human NaPi2b del 317-326) (human, UniProt O95436 1-690)
T2 construct: also called CL_#29921
T2 sequence: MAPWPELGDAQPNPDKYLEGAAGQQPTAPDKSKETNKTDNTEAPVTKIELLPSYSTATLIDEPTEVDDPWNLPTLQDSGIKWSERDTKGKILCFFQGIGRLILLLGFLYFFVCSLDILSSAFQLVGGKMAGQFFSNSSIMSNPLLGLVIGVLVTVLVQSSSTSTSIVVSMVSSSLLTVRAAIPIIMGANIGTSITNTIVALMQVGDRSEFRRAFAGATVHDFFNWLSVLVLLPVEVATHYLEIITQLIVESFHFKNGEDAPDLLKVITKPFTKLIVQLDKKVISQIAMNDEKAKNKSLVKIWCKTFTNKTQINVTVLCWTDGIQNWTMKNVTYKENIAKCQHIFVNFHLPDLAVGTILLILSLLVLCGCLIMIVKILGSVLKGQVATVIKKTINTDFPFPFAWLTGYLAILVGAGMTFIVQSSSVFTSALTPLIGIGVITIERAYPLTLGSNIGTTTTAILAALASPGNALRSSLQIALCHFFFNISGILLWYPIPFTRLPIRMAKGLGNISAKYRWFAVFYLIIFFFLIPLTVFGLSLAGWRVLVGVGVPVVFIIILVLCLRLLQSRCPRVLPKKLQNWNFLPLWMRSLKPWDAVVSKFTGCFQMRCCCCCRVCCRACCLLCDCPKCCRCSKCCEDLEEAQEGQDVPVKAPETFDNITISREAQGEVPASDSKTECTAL

T3: Full length human NaPi2b (sodium-dependent phosphate transporter 2B, SLC34A2) (human, UniProt O95436 1-690)
T3 construct: also called huNaPi2b; CL_#13432
T3 sequence: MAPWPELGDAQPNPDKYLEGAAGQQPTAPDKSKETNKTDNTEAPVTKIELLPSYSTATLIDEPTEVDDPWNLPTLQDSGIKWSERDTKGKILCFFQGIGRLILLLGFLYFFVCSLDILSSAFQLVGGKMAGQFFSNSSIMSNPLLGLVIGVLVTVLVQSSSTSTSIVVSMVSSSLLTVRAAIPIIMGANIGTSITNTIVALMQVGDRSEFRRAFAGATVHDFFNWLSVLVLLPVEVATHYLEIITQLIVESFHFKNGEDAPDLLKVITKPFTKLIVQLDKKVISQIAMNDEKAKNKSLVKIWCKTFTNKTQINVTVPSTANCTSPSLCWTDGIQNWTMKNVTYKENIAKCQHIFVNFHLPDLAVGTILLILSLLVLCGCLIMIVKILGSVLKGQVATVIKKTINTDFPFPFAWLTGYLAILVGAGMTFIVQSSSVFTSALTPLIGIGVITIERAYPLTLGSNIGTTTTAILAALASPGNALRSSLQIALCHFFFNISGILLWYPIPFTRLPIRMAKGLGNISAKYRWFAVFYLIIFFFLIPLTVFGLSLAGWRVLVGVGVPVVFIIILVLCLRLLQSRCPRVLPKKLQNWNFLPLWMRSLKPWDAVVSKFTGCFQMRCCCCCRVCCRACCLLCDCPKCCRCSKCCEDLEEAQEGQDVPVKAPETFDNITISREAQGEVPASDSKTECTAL

B1: v22277 (palivizumab, anti-RSV negative control, heterodimeric Fc) (antibody, human IgG1, kappa)
heavy 1: GQVTLRESGPALVKPTQTLTLTCTFSGFSLSTSGMSVGWIRQPPGKALEWLADIWWDDKKDYNPSLKSRLTISKDTSKNQVVLKVTNMDPADTATYYCARSMITNWYFDVWGAGTTVTVSSASTKGPSVFPLAPSSKSTSGGTAALGCLVKDYFPEPVTVSWNSGALTSGVHTFPAVLQSSGLYSLSSVVTVPSSSLGTQTYICNVNHKPSNTKVDKKVEPKSCDKTHTCPPCPAPELLGGPSVFLFPPKPKDTLMISRTPEVTCVVVDVSHEDPEVKFNWYVDGVEVHNAKTKPREEQYNSTYRVVSVLTVLHQDWLNGKEYKCKVSNKALPAPIEKTISKAKGQPREPQVYVYPPSRDELTKNQVSLTCLVKGFYPSDIAVEWESNGQPENNYKTTPPVLDSDGSFALVSKLTVDKSRWQQGNVFSCSVMHEALHNHYTQKSLSLSPG
heavy 2: not shown
light: GDIQMTQSPSTLSASVGDRVTITCKSQLSVGYMHWYQQKPGKAPKLLIYDTSKLASGVPSRFSGSGSGTEFTLTISSLQPDDFATYYCFQGSGYPFTFGGGTKLEIKRTVAAPSVFIFPPSDEQLKSGTASVVCLLNNFYPREAKVQWKVDNALQSGNSQESVTEQDSKDSTYSLSSTLTLSKADYEKHKVYACEVTHQGLSSPVTKSFNRGEC
notes: also called neg control
B2: v18993 (lifastuzumab), reference anti-NaPi2b antibody (antibody, human IgG1, kappa)
heavy 1: GEVQLVESGGGLVQPGGSLRLSCAASGFSFSDFAMSWVRQAPGKGLEWVATIGRVAFHTYYPDSMKGRFTISRDNSKNTLYLQMNSLRAEDTAVYYCARHRGFDVGHFDFWGQGTLVTVSSASTKGPSVFPLAPSSKSTSGGTAALGCLVKDYFPEPVTVSWNSGALTSGVHTFPAVLQSSGLYSLSSVVTVPSSSLGTQTYICNVNHKPSNTKVDKKVEPKSCDKTHTCPPCPAPELLGGPSVFLFPPKPKDTLMISRTPEVTCVVVDVSHEDPEVKFNWYVDGVEVHNAKTKPREEQYNSTYRVVSVLTVLHQDWLNGKEYKCKVSNKALPAPIEKTISKAKGQPREPQVYVYPPSRDELTKNQVSLTCLVKGFYPSDIAVEWESNGQPENNYKTTPPVLDSDGSFALVSKLTVDKSRWQQGNVFSCSVMHEALHNHYTQKSLSLSPG
heavy 2: not shown
light: GDIQMTQSPSSLSASVGDRVTITCRSSETLVHSSGNTYLEWYQQKPGKAPKLLIYRVSNRFSGVPSRFSGSGSGTDFTLTISSLQPEDFATYYCFQGSFNPLTFGQGTKVEIKRTVAAPSVFIFPPSDEQLKSGTASVVCLLNNFYPREAKVQWKVDNALQSGNSQESVTEQDSKDSTYSLSSTLTLSKADYEKHKVYACEVTHQGLSSPVTKSFNRGEC
B3: v18992 (MX35), reference anti-NaPi2b antibody (antibody, human IgG1, kappa)
heavy 1: GQVQLVQSGAEVVKPGASVKMSCKASGYTFTGYNIHWVKQAPGQGLEWIGAIYPGNGDTSYKQKFRGRATLTADTSTSTVYMELSSLRSEDSAVYYCARGETARATFAYWGQGTLVTVSSASTKGPSVFPLAPSSKSTSGGTAALGCLVKDYFPEPVTVSWNSGALTSGVHTFPAVLQSSGLYSLSSVVTVPSSSLGTQTYICNVNHKPSNTKVDKKVEPKSCDKTHTCPPCPAPELLGGPSVFLFPPKPKDTLMISRTPEVTCVVVDVSHEDPEVKFNWYVDGVEVHNAKTKPREEQYNSTYRVVSVLTVLHQDWLNGKEYKCKVSNKALPAPIEKTISKAKGQPREPQVYVYPPSRDELTKNQVSLTCLVKGFYPSDIAVEWESNGQPENNYKTTPPVLDSDGSFALVSKLTVDKSRWQQGNVFSCSVMHEALHNHYTQKSLSLSPG
heavy 2: not shown
light: GDIQMTQSPSSLSASVGDRVTITCSASQDIGNFLNWYQQKPGKTVKVLIYYTSSLYSGVPSRFSGSGSGTDYTLTISSLQPEDFATYYCQQYSKLPLTFGQGTKLELKRTVAAPSVFIFPPSDEQLKSGTASVVCLLNNFYPREAKVQWKVDNALQSGNSQESVTEQDSKDSTYSLSSTLTLSKADYEKHKVYACEVTHQGLSSPVTKSFNRGEC
B4: MX35 (v18992), reference anti-NaPi2b antibody (antibody, human IgG1, kappa)
heavy 1: B3 heavy 1
heavy 2: not shown
light: B3 light
B5: v38591 (humanized anti-NaPi2b antibody, wild-type Fc) (antibody, human IgG1, kappa)
heavy: not shown
light: DVQMTQSPSSLSASVGDRVTITCRASQDVYSYLNWYQQKPGKAVKLLIYYTSRLQSGVPSRFSGSGSGTDYTLTISSLQPEDFATYYCQQYNIFPWTFGQGTKLEIKRTVAAPSVFIFPPSDEQLKSGTASVVCLLNNFYPREAKVQWKVDNALQSGNSQESVTEQDSKDSTYSLSSTLTLSKADYEKHKVYACEVTHQGLSSPVTKSFNRGEC
notes: also called v38591 Wild-type; H1L2
B6: v38591 (humanized anti-NaPi2b antibody, H1L2, wild-type Fc, heavy chains with C-terminal lysine) (antibody, human IgG1, kappa)
heavy: not shown
light: B5 light
notes: Full-size human IgG1/kappa antibody; also called v38591 (wild-type Fc)

Key:
human NaPi2a = molecular target: T1, human NaPi2a; experiment: flow cytometry on HEK293-6e cells transfected with human NaPi2a, 24 h at 4 C, anti-human IgG Fc AF647
[1] = molecular target: T4, Construct 1 (chimeric human NaPi2b, swap in NaPi2c in 239-259) (human); experiment: flow cytometry, transfected HEK293-6e cells, antibody 200 nM;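 note: cells incubated with antibody for 24 h at 4 °C, background taken as average MFI of unstained cells without primary antibody, at least 1,000 events per well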
T4 construct: also called CL_#29914

[2] = molecular target: T2, Construct 7 (human NaPi2b del 317-326); experiment: as above
[3] = molecular target: T3, Full length human NaPi2b …; experiment: flow cytometry, transfected HEK293-6e cells, antibody 20 nM
[4] = molecular target: T5, Construct 2 (chimeric human NaPi2b, swap in NaPi2c in 280-301) (human); experiment: as above
T5 construct: also called CL_#29915

[5] = molecular target: T4, Construct 1 (chimeric human NaPi2b, …); experiment: as above
[6] = molecular target: T6, Construct 4 (chimeric human NaPi2b, swap in NaPi2c in 341-358) (human); experiment: as above
T6 construct: also called CL_#13435

| Binder | binding result (human NaPi2a) | Background-Subtracted AF647 Mean Fluorescence Intensity [1] [MFI] | Background-Subtracted AF647 Mean Fluorescence Intensity [2] [MFI] | Background-Subtracted AF647 Mean Fluorescence Intensity [3] [MFI] | Background-Subtracted AF647 Mean Fluorescence Intensity [4] [MFI] | Background-Subtracted AF647 Mean Fluorescence Intensity [5] [MFI] | Background-Subtracted AF647 Mean Fluorescence Intensity [6] [MFI] |
| --- | --- | --- | --- | --- | --- | --- | --- |
| B1 | no binding (tested: 200 nM) | – | – | – | – | – | – |
| B2 | no binding (tested: 200 nM) | – | – | – | – | – | – |
| B3 | no binding (tested: 200 nM) | – | – | – | – | – | – |
| B4 | – | 1720 | 298 | 1250 | 1250 | 1820 | 979 |
| B5 | no binding (tested: 200 nM) | – | – | – | – | – | – |
| B6 | – | 2160 | 626 | 1420 | 1340 | 1860 | 993 |
